{"source": "paper PMC11852716", "about": "“c-di-GMP phosphodiesterase ProE interacts with quorum sensing protein PqsE to promote pyocyanin production in Pseudomonas aeruginosa” (mSphere, 2025)", "binders": {"B1": {"name": "PQS quorum sensing protein PqsE (natural protein)", "chain": "MLRLSAPGQLDDDLCLLGDVQVPVFLLRLGEASWALVEGGISRDAELVWADLCRWVADPSQVHYWLITHKHYDHCGLLPYLCPRLPNVQVLASERTCQAWKSESAVRVVERLNRQLLRAEQRLPEACAWDALPVRAVADGEWLELGPRHRLQVIEAHGHSDDHVVFYDVRRRRLFCGDALGEFDEAEGVWRPLVFDDMEAYLESLERLQRLPTLLQLIPGHGGLLRGRLAADGAESAYTECLRLCRRLLWRQSMGESLDELSEELHRAWGGQSVDFLPGELHLGSMRRMLEILSRQALPLD", "notes": "PqsE of the PQS quorum sensing system, Pseudomonas aeruginosa PAO1; DNA fragment encoding pqsE cloned into pET28b(+); source: E. coli BL21(DE3), pET28b(+), purified (Ni-NTA)"}}, "settings_in_all_cases": "both partners purified", "key": {"[1]": {"target": "T1, c-di-GMP phosphodiesterase ProE (Pseudomonas aeruginosa, UniProt Q9HTQ9 1-558)", "T1 construct": "ProE, c-di-GMP phosphodiesterase of Pseudomonas aeruginosa PAO1; also called PDE ProE", "T1 sequence": "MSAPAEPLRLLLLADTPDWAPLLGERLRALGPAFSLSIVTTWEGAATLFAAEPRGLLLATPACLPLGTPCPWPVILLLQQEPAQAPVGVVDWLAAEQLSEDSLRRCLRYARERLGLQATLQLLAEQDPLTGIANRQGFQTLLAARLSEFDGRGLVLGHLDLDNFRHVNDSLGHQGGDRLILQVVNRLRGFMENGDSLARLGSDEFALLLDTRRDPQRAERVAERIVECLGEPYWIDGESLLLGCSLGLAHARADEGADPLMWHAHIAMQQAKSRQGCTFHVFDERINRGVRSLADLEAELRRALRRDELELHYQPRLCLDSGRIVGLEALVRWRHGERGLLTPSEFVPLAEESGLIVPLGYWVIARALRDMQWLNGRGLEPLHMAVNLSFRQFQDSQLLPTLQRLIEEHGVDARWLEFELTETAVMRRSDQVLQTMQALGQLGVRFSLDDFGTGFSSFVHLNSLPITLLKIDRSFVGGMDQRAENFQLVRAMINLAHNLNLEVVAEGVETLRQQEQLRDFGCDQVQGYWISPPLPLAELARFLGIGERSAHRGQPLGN", "experiment": "SPR; Biacore T200, 25°C, PBST pH 7.4; PqsE amine-coupled on CM5 chip, ProE injected with 100 µM c-di-GMP"}, "[2]": {"target": "T1, c-di-GMP phosphodiesterase ProE", "experiment": "ITC; MicroCal VP-ITC, 25°C; ProE (printed 'Thirty micrometers') in the cell titrated with 300 µM PqsE; PBS with 5 mM β-mercaptoethanol; single set of identical sites model"}, "[3]": {"target": "T1, c-di-GMP phosphodiesterase ProE", "experiment": "SPR; Biacore T200, 25°C, PBST pH 7.4; PqsE amine-coupled on CM5 chip, ProE injected with 10 mM Mg2+"}, "[4]": {"target": "T1, c-di-GMP phosphodiesterase ProE", "experiment": "SPR; Biacore T200, 25°C, PBST pH 7.4; PqsE amine-coupled on CM5 chip (8,000 RU), ProE injected; 1:1 Langmuir or steady-state affinity model"}}}
{"binder": "B1", "values": [{"measurement": "Kd", "setting": "[1]", "value": 2210, "unit": "nM"}, {"measurement": "Kd", "setting": "[2]", "value": 5460, "unit": "nM"}, {"measurement": "Kd", "setting": "[3]", "value": 2270, "unit": "nM"}, {"measurement": "Kd", "setting": "[4]", "value": 3210, "unit": "nM"}]}
